Experimental data from article PMC12204359 (2025).
Residue numbers refer to the chain shown, from its start. Names and notes keep the numbering of the source. Where two headings read alike, the source gives them in different places. Positions of bridges follow the written chain, without caps; N, C: chain ends. Non-standard residues stand in square brackets, D forms with d. Primed or numbered codes have the meaning given here. No end group written: not given here. FAM″ = 5(6)-carboxyfluorescein label; pS = N[C@@H](COP(=O)(O)O)C(=O)O; FAM = 5(6)-carboxyfluorescein; S5 = C=CCCC[C@](C)(N)C(=O)O; PEG3′ = PEG3 linker

B1: WT TACC3 S558D (peptide)
chain: {FAM}-KESALRKQDLYLKFDPLLR
B2: FAM-pTACC3 CID peptide (aa 549–570), phosphorylated at S558 (peptide)
peptide: {FAM}-FKESALRKQ[pS]LYLKFDPLLRDS
B3: clathrin heavy chain minimal ankle region (CHC^ankle, aa 358–574) (domain or fragment)
chain: AGAEELFARKFNALFAQGNYSEAAKVAANAPKGILRTPDTIRRFQSVPAQPGQTSPLLQYFGILLDQGQLNKYESLELCRPVLQQGRKQLLEKWLKEDKLECSEELGDLVKSVDPTLALSVYLRANVPNKVIQCFAETGQVQKIVLYAKKVGYTPDWIFLLRNVMRISPDQGQQFAQMLVQDEEPLADITQIVDVFMEYNLIQQCTAFLLDALKNNR
B4: biotinylated Avi-tagged ankle region of clathrin (aa 358–574) (domain or fragment)
chain: B3 chain
modifications: biotin
B5: K507A-CHC^ankle (domain or fragment)
chain: B3 chain with K150A
B6: negative control SP TACC3 (F563A & L566A) (peptide)
chain: {FAM″}-KESALRK[S5]ELL[S5]EADPAFRDS-NH2
modifications: staple 8-12
B7: SP4D (peptide)
chain: KESALRKXDLYXKFDPLLRDS
modifications: N-terminal FAM; X557 and X561 are (S)-2-(4-pentenyl)alanine joined as i,i+4 hydrocarbon staple; staple position and limits inferred from Opt SP TACC3 (KESALRK*ELL*…), exact sequence only in Fig 3A
B8: SP5E (peptide)
chain: {FAM″}-KESALRKQELY[S5]KFD[S5]LLRDS-NH2
modifications: staple 12-16
B9: SP5D (peptide)
chain: {FAM″}-KESALRKQDLY[S5]KFD[S5]LLRDS-NH2
modifications: staple 12-16
B10: Opt SP TACC3 (designed binder)
chain: {FAM}-KESALRKLELLLEFDPLFRDS
modifications: staple (positions not given here); not fully specified (residues 8, 12, bridges); also: (S)-2-(4-pentenyl)alanine at 557 and 561 not placed in the given letters
B11: Opt PEG3 SP TACC3 (designed binder)
chain: {FAM-PEG3′}-KESALRK[S5]ELL[S5]EFDPLFRDS
modifications: staple 8-12

Tests used:
[1] = target: B3; assay: FP
[2] = target: B4; assay: SPR
[3] = target: B4; assay: SPR
K507A-CHC^ankle [4] = target: B5; assay: FP
Chain of K507A-CHC^ankle (Q00610 358-574 K507A): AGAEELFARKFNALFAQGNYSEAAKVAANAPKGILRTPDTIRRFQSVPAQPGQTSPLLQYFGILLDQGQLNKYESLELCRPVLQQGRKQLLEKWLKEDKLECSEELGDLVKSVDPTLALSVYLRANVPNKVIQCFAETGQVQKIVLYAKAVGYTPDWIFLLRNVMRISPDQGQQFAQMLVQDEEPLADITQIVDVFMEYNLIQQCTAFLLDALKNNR

Opt P9 (S558E) = assay: FP
Opt P3 (S558E) = assay: FP
Opt P4 (S558E) = assay: FP
Opt P1 (S558E) = assay: FP
Opt P7 (pS558) = assay: FP
Opt P3 (pS558) = assay: FP
Opt P1 (pS558) = assay: FP
Opt P9 (pS558) = assay: FP
Opt P4 (pS558) = assay: FP
Opt P5 (pS558) = assay: FP
Opt P8 (S558D) = assay: FP
Opt P1 (S558D) = assay: FP
Opt P2 (S558D) = assay: FP
Opt P6 (S558E) = assay: FP
Opt P3 (S558D) = assay: FP
Opt P8 (pS558) = assay: FP
Opt P2 (S558E) = assay: FP
Opt P2 (pS558) = assay: FP
Opt P5 (S558D) = assay: FP
Opt P6 (S558D) = assay: FP
Opt P7 (S558D) = assay: FP
Opt P5 (S558E) = assay: FP
Opt P8 (S558E) = assay: FP
Opt P9 (S558D) = assay: FP
Opt P6 (pS558) = assay: FP
Opt P7 (S558E) = assay: FP
Opt P4 (S558D) = assay: FP
SP3E = assay: FP
SP4E [5] = target: T1, SP4E (human, UniProt Q9Y6A5, two (S)-2-(4-pentenyl)alanine, stapled; FAM on the N-terminus); assay: FP
SP6E = assay: FP
SP1 = assay: FP
P1 = assay: FP
SP6D = assay: FP
SP2 = assay: FP
P2 = assay: FP
SP3D = assay: FP
SP4E [6] = target: T1, SP4E; assay: SPR
K507A-CHC^ankle [7] = target: B5; assay: FP; remark: listed apart in the source
[8] = target: B3; assay: FP

B1 showed a Kd [1] of 339 µM.

B2 gave a koff [2] of 1.4 s⁻¹, a Kd [3] of 23 µM and a Kd (K507A-CHC^ankle [4]) of 22 µM.

Work on B3 yielded a Kd (Opt P9 (S558E)) of 23.4 µM, a Kd (Opt P3 (S558E)) of 13 µM and a Kd (Opt P4 (S558E)) of 6.1 µM. For the same binder, the Kd (Opt P1 (S558E)) was 2.4 µM, the Kd (Opt P7 (pS558)) was 4.4 µM and the Kd (Opt P3 (pS558)) was 3.3 µM. It also gave a Kd (Opt P1 (pS558)) of 1.7 µM, a Kd (Opt P9 (pS558)) of 9.5 µM and a Kd (Opt P4 (pS558)) of 7.1 µM. For the same binder, the Kd (Opt P5 (pS558)) was 5 µM, the Kd (Opt P8 (S558D)) was 30 µM and the Kd (Opt P1 (S558D)) was 6.3 µM. For the same binder, the Kd (Opt P2 (S558D)) was 3.3 µM, the Kd (Opt P6 (S558E)) was 2.8 µM and the Kd (Opt P3 (S558D)) was 22.8 µM. For the same binder, the Kd (Opt P8 (pS558)) was 15 µM, the Kd (Opt P2 (S558E)) was 1.3 µM and the Kd (Opt P2 (pS558)) was 1.2 µM. It also gave a Kd (Opt P5 (S558D)) of 16 µM, a Kd (Opt P6 (S558D)) of 5.5 µM and a Kd (Opt P7 (S558D)) of 16.2 µM. The Kd (Opt P5 (S558E)) was 6.7 µM, the Kd (Opt P8 (S558E)) was 13 µM and the Kd (Opt P9 (S558D)) was 24.5 µM. It also gave a Kd (Opt P6 (pS558)) of 1.8 µM, a Kd (Opt P7 (S558E)) of 10.1 µM and a Kd (Opt P4 (S558D)) of 6.5 µM. It also gave a Kd (SP3E) of 78 µM, a Kd (SP4E [5]) of 34 µM and a Kd (SP6E) of 54 µM. The Kd (SP1) was 22 µM, the Kd (P1) was 105 µM and the Kd (SP6D) was 74 µM. For the same binder, the Kd (SP2) was 145 µM, the Kd (P2) was 160 µM and the Kd (SP3D) was 92 µM.

With B4 the Kd (SP4E [6]) was 2.8 µM and the koff (SP4E [6]) was 0.46 s⁻¹.

With B5 the Kd (SP3E) was 22 µM, the Kd (SP4E [5]) was 3.7 µM and the Kd (SP6E) was 53 µM. The Kd (P1) was 37 µM, the Kd (SP6D) was 44 µM and the Kd (SP2) was 23 µM. For the same binder, the Kd (P2) was 19 µM and the Kd (SP3D) was 23 µM.

Binder B6 has a Kd (K507A-CHC^ankle [7]) of 280 µM.

B7 gave a Kd [8] of 39 µM and a Kd (K507A-CHC^ankle [7]) of 5.2 µM.

Binder B8 has a Kd [8] of 234 µM and a Kd (K507A-CHC^ankle [7]) of 146 µM.

Work on B9 yielded a Kd [8] of 361 µM and a Kd (K507A-CHC^ankle [7]) of 152 µM.

In the case of B10, the Kd [8] is reported as 0.136 µM, the Kd (K507A-CHC^ankle [7]) is reported as 0.19 µM and the koff [2] is reported as 0.04 s⁻¹. It also gave a Kd [3] of 0.03 µM.

In the case of B11, the Kd [8] is reported as 0.12 µM and the Kd (K507A-CHC^ankle [7]) is reported as 0.178 µM.
